From the nanobody polyreactivity screen of Harvey et al. (2022)

assay: yeast display, Sf9 membrane polyspecificity reagent, FACS + sequencing; frameworks hold sequencing errors
Summary of the method: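 In a synthetic yeast display library (Saccharomyces cerevisiae BJ5465), nanobody expression was induced with galactose for 36–48 hours. FACS gates were set low and high (top ~1%) using anti-HA fluorescence for expression and streptavidin fluorescence for binding of the Sf9 membrane reagent. Each polyreactivity label is drawn from the gate of origin.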

Sequence	polyreactivity (PSR sort gate)
QVQLLESGGGLVQAGGSLRLSCAASGLTVYGYVMAWYRHAPGKERELVASISRSGCRTYYADSVKGRFTISRDNEKNTVYLQMNSLKPEDTAVYYCAADDQVGQEDDYWGQGTQVTVSS	low polyreactivity
QVQLLESGGGLVQAGGSLRLSCAASGNTLRYNVMGWYRQAPGKERELFAAISGGGSTSYADSVKGRFTISRDNAKNTVYLQMNSLKPEDTAVYYCAKRSFVGGRGRDSDYRGQGTQVTVSS	low polyreactivity
QVQLLESGGGLVQAGGSLRLSCAASGRIFPRYAMGWYRQAPGKERELVASITRRGGSTYYADSVKGRFTISRDNAKNTVYLQMNSLKPEDTAVYYCNALPRAQSYELYNYWGQGTQVTVSS	high polyreactivity
QVQLLESGGGLVQAGGSLRLSCAASGRIFYVNAMGWYRQSPGKERELVAGIDDGVTTYYADSVKGRFTISRDNAKNTVYLLMNRLKPEDTAVYYCAAETSTNPEAYEYWGQGTQVTVSS	low polyreactivity
QVQLLESGGGLVQAGGSLRLSCAASGRTFVSYDMGWDRQAPGKEREVVAAITYSGGASTYYADSVKGRFTISRDYAKKTGYFQMNSLIPEDTAVYYCATDFSLSFELDYWGQGTQVTVSS	low polyreactivity
QVQLLESGGGLVQAGGSLRLSCAASGRTFWAYAMGWYRQAPGKERELVAAIDGGDGSTYYADSVKGRFTISRDYAKNTVYLQMNSLKPEDTAVYYCAAETPSGYYPQQYDYYLGQGTQVTVSS	high polyreactivity
QVQLLESGGGLVQAGGSLRLSCAASGSIFGGNARGWSRQAPGKERELVAAITYSGGSTYYADSVKGRFTISRDNAKNTVYLQMNSLKPEDTAVYYCNADGVVTWYDYWGQGTQVTVSS	low polyreactivity
QVQLLESGGGLVQAGGSLRLSCAASGSIFGYYAMGWYRQAPGKERELVAAISVNGGRTYYADSVKWRFTISRDIAKNTVYLQMNMLKPEDTAVSYCAAELVDFITFRGDFYYWGQGTEVTVSS	high polyreactivity
QVQLLESGGGLVQAGGSLRLSCAASGSIFLTYAMGWYRQAPGKERELVAAISSSGGSTYYADSVKGRFTISRDNSKNTVYLQMNSLKPEVTAVYYCNAAYHFRRTLGRDHWGQGTEVTVSS	low polyreactivity
QVQLLESGGGLVQAGGSLRLSCAASGSIFRANAMGWYRQAPGKERELVAAITNGGRTNYADSVKGRFTISRDNAKNTVYLQMNSLKPEDTAVYYCAKDIYQHAKRRYDYWGQGTQVTVSS	low polyreactivity
QVQLLESGGGLVQAGGSLRLSCAASGSIFRGYAMGWYRQAPGKERELVAGIRGSDGSTYYADSVKGRFTISRDNAKNTVYLQMNSLKPEDTAVYYCAADRRYLDRDKHRYGYWGQGTQVTVSS	low polyreactivity
QVQLLESGGGLVQAGGSLRLSCAASGSIFVINVMGWYRQAPRKDRELVATITGGRSTKYADSVNGRFTISRDNAKNTVYLQMNSLKPEDTAVYYCNIQSKSRGVHDPSGYDYWGQGTQVTVSS	low polyreactivity
QVQLLESGGGLVQAGGSLRLSCAASGSIFWYNAMGWYRQAPGKERELVATISSRGDGTYYADSVKGRFTISRDNAKNTVYLQMNSLKPEDTAVYYCNKYRQQGWEFDYWGQGTQVTVSS	high polyreactivity
QVQLLESGGGLVQAGGSLRLSCAASGSTFKKNAMGWYRQAPGKETELVAAISGIGTRTSYADSLKGRFTISRDNAKNTVYLQMNRLKPEDTAVYYCAARYYGFPSTLKYDYWGQGTQVTVSS	high polyreactivity
QVQLLESGGGLVQAGGSLRLSCAASGSTFYYYAMGWYRQAPGKERELVAAITSGGRTYYADSQKGRFTNSRDNAKNTVYLQMNSLKPEDTAVYYSNKRWTIWGYDYWAQGTQVTVSS	high polyreactivity
QVQLLESGGGLVQAGGSLRLSCAASGYIFGWYTMGWYRQAPGKERELVAAISYSGGDTYYADSVKGRFTNTRDNAKNTVYLQMNSLKPEDTAVYYCAAVDPASPLGEYWGQGTQVTVSS	low polyreactivity
